Earlier results on 2 substances are cited in PMC4741374.

One data set concerns the target GM-CSFR (Homo sapiens) (UniProt P15509).
The next data set has as its target G-CSFR (Homo sapiens) (UniProt Q99062).
Sequence of UniProt Q99062 (Q99062 25-627): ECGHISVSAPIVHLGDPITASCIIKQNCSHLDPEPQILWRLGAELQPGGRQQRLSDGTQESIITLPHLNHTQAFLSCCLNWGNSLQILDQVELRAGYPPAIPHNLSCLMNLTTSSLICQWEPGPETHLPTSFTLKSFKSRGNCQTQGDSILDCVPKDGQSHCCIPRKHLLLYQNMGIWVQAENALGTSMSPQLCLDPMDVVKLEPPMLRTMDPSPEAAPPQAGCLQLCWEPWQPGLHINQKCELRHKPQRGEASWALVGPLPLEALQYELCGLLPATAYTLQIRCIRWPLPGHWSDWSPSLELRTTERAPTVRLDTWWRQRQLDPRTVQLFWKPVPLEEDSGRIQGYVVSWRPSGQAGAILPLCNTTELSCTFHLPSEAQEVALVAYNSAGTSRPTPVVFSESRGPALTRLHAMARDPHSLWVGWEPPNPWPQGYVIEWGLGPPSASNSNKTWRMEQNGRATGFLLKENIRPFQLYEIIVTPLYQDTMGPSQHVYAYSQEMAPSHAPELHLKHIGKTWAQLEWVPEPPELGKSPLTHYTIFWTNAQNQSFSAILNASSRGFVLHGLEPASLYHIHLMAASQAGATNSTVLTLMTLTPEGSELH

Sequence of UniProt P15509 (P15509 23-320, chain 1 of 2): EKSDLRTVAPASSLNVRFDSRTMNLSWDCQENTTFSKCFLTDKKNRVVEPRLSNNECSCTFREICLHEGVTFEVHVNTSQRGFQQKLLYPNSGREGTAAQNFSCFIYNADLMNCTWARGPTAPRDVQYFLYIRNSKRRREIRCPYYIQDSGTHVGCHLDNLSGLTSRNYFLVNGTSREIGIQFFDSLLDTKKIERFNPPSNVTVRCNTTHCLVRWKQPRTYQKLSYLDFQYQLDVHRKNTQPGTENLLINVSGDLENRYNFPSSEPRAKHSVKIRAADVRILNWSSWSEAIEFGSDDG
Sequence of UniProt P15509 (P32927 17-443, chain 2 of 2, further chain): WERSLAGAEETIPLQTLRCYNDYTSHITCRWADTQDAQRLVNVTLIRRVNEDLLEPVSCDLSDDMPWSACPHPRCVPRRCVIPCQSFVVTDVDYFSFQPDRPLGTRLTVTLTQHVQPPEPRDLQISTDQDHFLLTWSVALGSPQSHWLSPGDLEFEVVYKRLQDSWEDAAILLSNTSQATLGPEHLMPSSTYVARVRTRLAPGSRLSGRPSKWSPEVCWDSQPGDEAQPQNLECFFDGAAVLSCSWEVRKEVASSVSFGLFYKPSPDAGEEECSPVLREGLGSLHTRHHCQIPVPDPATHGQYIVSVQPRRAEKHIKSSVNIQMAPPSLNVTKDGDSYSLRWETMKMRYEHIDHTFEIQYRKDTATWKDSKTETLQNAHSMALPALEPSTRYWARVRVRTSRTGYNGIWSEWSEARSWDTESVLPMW

A word on the Kd: it is the concentration at which binding is half-saturated. GM-CSF (from UniProt P04141): the dissociation constant (Kd) with GM-CSFR (Homo sapiens) was 0.1 nM. On to G-CSF (from UniProt P09919), for which the Kd with G-CSFR (Homo sapiens) is 0.5 nM.
